B1: PME1 (found with purified B55 variants) [human] / B55α WT (immunopurified, Fig. 2) [not stated] (parent complex)
chain 1: MSALEKSMHLGRLPSRPPLPGSGGSQSGAKMRMGPGRKRDFSPVPWSQYFESMEDVEVENETGKDTFRVYKSGSEGPVLLLLHGGGHSALSWAVFTAAIISRVQCRIVALDLRSHGETKVKNPEDLSAETMAKDVGNVVEAMYGDLPPPIMLIGHSMGGAIAVHTASSNLVPSLLGLCMIDVVEGTAMDALNSMQNFLRGRPKTFKSLENAIEWSVKSGQIRNLESARVSMVGQVKQCEGITSPEGSKSIVEGIIEEEEEDEEGSESISKRKKEDDMETKKDHPYTWRIELAKTEKYWDGWFRGLSNLFLSCPIPKLLLLAGVDRLDKDLTIGQMQGKFQMQVLPQCGHAVHEDAPDKVAEAVATFLIRHRFAEPIGGFQCVFPGC
chain 2: MAGAGGGNDIQWCFSQVKGAVDDDVAEADIISTVEFNHSGELLATGDKGGRVVIFQQEQENKIQSHSRGEYNVYSTFQSHEPEFDYLKSLEIEEKINKIRWLPQKNAAQFLLSTNDKTIKLWKISERDKRPEGYNLKEEDGRYRDPTTVTTLRVPVFRPMDLMVEASPRRIFANAHTYHINSISINSDYETYLSADDLRINLWHLEITDRSFNIVDIKPANMEELTEVITAAEFHPNSCNTFVYSSSKGTIRLCDMRASALCDRHSKLFEEPEDPSNRSFFSEIISSISDVKFSHSGRYMMTRDYLSVKIWDLNMENRPVETYQVHEYLRSKLCSLYENDCIFDKFECCWNGSDSVVMTGSYNNFFRMFDRNTKRDITLEASRENNKPRTVLKPRKVCASGKRKKDEISVDSLDFNKKILHTAWHPKENIIAVATTNNLYIFQDKVN
B2: CDCA4 (found with purified B55 variants) [human] / B55α WT (immunopurified, Fig. 2) [not stated] (parent complex)
chain 1: MFARGLKRKCVGHEEDVEGALAGLKTVSSYSLQRQSLLDMSLVKLQLCHMLVEPNLCRSVLIANTVRQIQEEMTQDGTWRTVAPQAAERAPLDRLVSTEILCRAAWGQEGAHPAPGLGDGHTQGPVSDLCPVTSAQAPRHLQSSAWEMDGPRENRGSFHKSLDQIFETLETKNPSCMEELFSDVDSPYYDLDTVLTGMMGGARPGPCEGLEGLAPATPGPSSSCKSDLGELDHVVEILVET
chain 2: B1 chain 2
B3: IER2 (found with purified B55 variants) [human] / B55α WT (immunopurified, Fig. 2) [not stated] (parent complex)
chain 1: MEVQKEAQRIMTLSVWKMYHSRMQRGGLRLHRSLQLSLVMRSARELYLSAKVEALEPEVSLPAALPSDPRLHPPREAESTAETATPDGEHPFPEPMDTQEAPTAEETSACCAPRPAKVSRKRRSSSLSDGGDAGLVPSKKARLEEKEEEEGASSEVADRLQPPPAQAEGAFPNLARVLQRRFSGLLNCSPAAPPTAPPACEAKPACRPADSMLNVLVRAVVAF
chain 2: B1 chain 2
B4: FAM122A [human (endogenous in HeLa)] / B55α WT (immunopurified, Fig. 2) [not stated] (parent complex)
chain 1: MAQEKMELDLELPPGTGGSPAEGGGSGGGGGLRRSNSAPLIHGLSDTSPVFQAEAPSARRNSTTFPSRHGLLLPASPVRMHSSRLHQIKQEEGMDLINRETVHEREVQTAMQISHSWEESFSLSDNDVEKSASPKRIDFIPVSPAPSPTRGIGKQCFSPSLQSFVSSNGLPPSPIPSPTTRFTTRRSQSPINCIRPSVLGPLKRKCEMETEYQPKRFFQGITNMLSSDVAQLSDPGVCVSSDTLDGNSSSAGSSCNSPAKVSTTTDSPVSPAQAASPFIPLDELSSK
chain 2: B1 chain 2

Variants of: B1
Test: immunopurification of YFP-B55α variants (IP: YFP), Western blot quantification; read off a plot

| percent of parent | Variant |
| --- | --- |
| ~4% | chain 2 S287A |
| ~130% | chain 2 F280A |
| ~170% | chain 2 H179A |
| ~9% | chain 2 V228A |
| ~50% | chain 2 D340A |
| ~53% | chain 2 Y337A |
| ~13% | chain 2 Y178A |
| ~3% | chain 2 D197A |
| ~2% | chain 2 L198A |
| ~3% | chain 2 L225A |
| ~13% | chain 2 I284A |
| ~3% | chain 2 F343A |
| ~3% | chain 2 T230A |

Variants of: B2
Test: as above

| percent of parent | Variant |
| --- | --- |
| ~40% | chain 2 L198A |
| ~160% | chain 2 I284A |
| ~130% | chain 2 S287A |
| ~90% | chain 2 Y178A |
| ~50% | chain 2 Y337A |
| ~28% | chain 2 D340A |
| ~80% | chain 2 D197A |
| ~75% | chain 2 L225A |
| ~28% | chain 2 F343A |
| ~78% | chain 2 V228A |
| ~93% | chain 2 H179A |
| ~58% | chain 2 T230A |
| ~110% | chain 2 F280A |

Variants of: B3
Test: as above

| percent of parent | Variant |
| --- | --- |
| ~25% | chain 2 L225A |
| ~67% | chain 2 S287A |
| ~140% | chain 2 H179A |
| ~3% | chain 2 L198A |
| ~55% | chain 2 Y178A |
| ~50% | chain 2 T230A |
| ~83% | chain 2 F280A |
| ~7% | chain 2 D197A |
| ~2% | chain 2 Y337A |
| ~65% | chain 2 I284A |
| ~70% | chain 2 V228A |
| ~30% | chain 2 F343A |
| ~2% | chain 2 D340A |

Variants of: B4
Test: as above

| percent of parent | Variant |
| --- | --- |
| ~90% | chain 2 F343A |
| ~70% | chain 2 H179A |
| ~63% | chain 2 S287A |
| ~5% | chain 2 Y178A |
| ~93% | chain 2 T230A |
| ~0% | chain 2 D197A |
| ~100% | chain 2 V228A |
| ~130% | chain 2 L225A |
| ~140% | chain 2 F280A |
| ~130% | chain 2 Y337A |
| ~97% | chain 2 I284A |
| ~0% | chain 2 L198A |
| ~77% | chain 2 D340A |
